Reference: patent publication US20190185564A1 (AGENCY FOR SCIENCE TECHNOLOGY AND RESEARCH, published 2019)
Numbering of substitutions follows the chain as printed.

B1: anti-TIM-3 antibody clone A11 (antibody, V domains shown)
VH: QVQLQQWGAGLLKPSETLSLTCAVYGGSFSGYYWSWIRQPPGKGLEWIGEINHSGSTNYNPSLKSRVTISVDTSKNQFSLKLSSVTAADTAVYYCARGYVAGFDYWGQGTLVTVSS
VL: QSVVTQPPSVSAAPGQKVTISCSGSSSNIGNNYVSWYQQLPGTAPKLLIYGNNWRPSGIPDRFSGSKSGTSATLAISGLQTGDEADYYCETWDSSLSAGVFGGGTKLTVL
notes: Screened as Fab, and SPR was recorded for 'each candidate Fab'
B2: anti-TIM-3 antibody clone G7 (antibody, V domains shown)
VH: EVQLVQSGAEVKKPGASVKVSCKASGYTFTSYYMHWVRQAPGQGLEWMGIINPSGGSTSYAQKFQGRVTMTRDTSTSTVYMELSSLRSEDTAVYYCARDQYSSGWYYYGMDVWGQGTTVTVSS
VL: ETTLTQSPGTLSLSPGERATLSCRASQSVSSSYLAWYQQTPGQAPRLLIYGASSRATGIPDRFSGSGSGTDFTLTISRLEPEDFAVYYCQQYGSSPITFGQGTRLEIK
notes: as for B1
B3: anti-TIM-3 antibody clone G9 (antibody, V domains shown)
VH: B2 VH with E1Q, V5Q, Q100L, S103Y, W105F
VL: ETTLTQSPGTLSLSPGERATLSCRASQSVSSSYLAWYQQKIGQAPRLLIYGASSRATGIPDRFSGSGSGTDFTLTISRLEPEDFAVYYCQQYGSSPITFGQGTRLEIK
notes: as for B1
B4: anti-TIM-3 antibody clone A3 (antibody, V domains shown)
VH: QVQLVQSGAEVKKPGASVKVSCKASGYTFTSYYMHWVRQAPGQGLEWMGIINPSGGSTSYAQKFQGRVTMTRDTSTSTVYMELSSLRSEDTAVYYCARSPGVVTALFDYWGQGTLVTVSS
VL: DIQMTQSPSFMSASVGDRVTITCRASQDIGSYLAWYQQKPGKAPKLLIYAASTLQSGVPSRFSGSGSGTDFTLTINSLQPEDFATYYCQQSYSSPPTFGPGTTLEIK
notes: Isolated from a human phage library and screened as Fab; SPR was recorded for 'each candidate Fab'
B5: anti-TIM-3 antibody clone B10 (antibody, V domains shown)
VH: QVQLQESGPGLVKASETLSLTCTVSGGSIGSSDYYWGWIRQPPGKGLEWIGSIYYSGSTYYNPSLKSRVTMSVDTPNNQFSLKLSSVTAADTAVYYCARGEHRGEFDYWGQGTLVTVSS
VL: EIVLTQSPATLSFSPGERATLSCRASQSVGSYLAWYQQRPGQAPRPLIYDATNRATGIPTRFSGSGSGTDFTLTISSLEPEDFATYYCQHRRTFGRGTKLEIK
notes: as for B1
B6: anti-TIM-3 antibody clone G6 (antibody, V domains shown)
VH: QVQLQESGPGLVKPSGTLSLTCAVSGGSISSSNWWSWVRQPPGKGLEWIGEIYHSGSTNYNPSLKSRVTISVDKSKNQFSLKLSSVTAADTAVYYCARVVAVAGTVDYWGQGTLVTVSS
VL: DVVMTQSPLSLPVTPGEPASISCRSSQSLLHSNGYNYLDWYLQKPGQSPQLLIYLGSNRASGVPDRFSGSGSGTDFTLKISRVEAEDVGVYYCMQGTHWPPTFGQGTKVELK
notes: as for B1

The binders below were run against T1, Mouse Tim-3-Fc (mouse, UniProt Q8VIM0) (assay: ELISA on coated mouse TIM-3-Fc, absorbance 450-670 nm).
T1 construct: coupled to human Fc; ELISA coating antigen for the cross-reactivity test; also called mouse TIM-3 coupled to human Fc
Method: (§1) After a small-scale induction in HB2151 cells, Fab antibodies were screened by ELISA. […] After extensive washes in PBS Tween-20, Fab-containing supernatants from induction plates were transferred into the ELISA plates in the presence of 7% milk in PBS. After 90 minutes at room temperature under agitation and extensive washes, a goat anti-human Fab antibody coupled to HRP was added. One hour later, plates were washed and TMB substrate added. The reaction was stopped with 1M HCl and optical density measured at 450 nm with a reference at 670 nm. Antibodies giving an absorbance >0.1 were selected as positive.
B1: no binding.

Molecular target: T1, Mouse Tim-3-Fc
Test: as above
Remark: another data set of the same source
Method: as §1
B2: no binding. B3: no binding. B4: no binding. B5: no binding. B6: no binding.
